Experimental data as given in PMC7509637 (Advanced Science, 2020).
Entries after “also recorded” stand apart in the source; their conditions may differ.

B1: FapC monomers: monomeric FapC, purified via a PD10 desalting column (protein)
chain: GNEGGWHPPKPNPQSNNKGGATALVVDTQQNYNNKVSNFGTLNNASVSGSIKDASGNVGVNVAAGDNNQQANAAALASADASFVFGTATASTSVLQSGYGNTLNNYSNPNTASLSNSANNVSGNLGVNVAAGNFNQQKNDLAAAVSNGQYSTAGSAASQTSTGNTTVNSANYAYGGTYVSLKLNADGSYKGTSDQIGDVYLDTWEGQTHPGGSNTGHIDVDSQAQGAKDLNHDGGAFAFKEKGDVDLKGTVSGFIPAIVGFKTPVTNNASLSNSLQNVSGNVGVNIAAGGGNQQSNSLSIAAGCSSCPAGGESLGF
B2: FapCS derived from younger FapC fibrils: seeds from FapC fibrils fibrillated for 4 d at 37 °C and 25 °C (protein, UniProt Q9I2F0 25-340, looked up)
Functional amyloid subunit …: B1 chain
modifications: sonicated fibril seeds
notes: seeds from FapC fibrils fibrillated for 4 d at 37 °C and 25 °C
B3: FapC fibrils: FapC incubated in deionized water at 37 °C for 1 week, nonsonicated fibrils (protein)
chain: B1 chain

Key:
Aβ [1] = target: T1, Aβ (Homo sapiens, UniProt P05067); assay: Circular dichroism spectroscopy, secondary structure; conditions: incubation with Aβ, Figure S7
T1 construct: purchased Anaspec Inc
Description: Solutions of 200 µL, at similar molar ratios as for ThT assay, were prepared and incubated at 37 °C. CD spectra for different samples at 0, 12 and 48 h were measured with a CD spectrophotometer (Jasco) from 190 to 240 nm (1 nm step size). The percentage secondary structure was calculated by the CD data via Dichroweb analysis with parameters of Contin/reference set 4.^[ ^95 ^]

Aβ [2] = target: T1, Aβ; assay: TEM imaging of Aβ with FapC species or bLgS; conditions: 12 h incubation, uranyl acetate negative stain
Description: (§1) Aβ incubated in the presence or absence of FapCS, FapC monomers, FapC fibrils or bLgS were subjected to TEM imaging. After incubation for 12 h, a drop of sample was applied on a glow‐discharged carbon‐coated copper grid. After 1 min, the sample was blotted and then negatively stained with uranyl acetate (1%) for 30 s. The dried grid was then imaged with a Technei F20 TEM at 200 kV. For AFM, a drop of sample was placed on freshly cleaved mica surface and rinsed with water after 2 min and dried with pressurized air. The sample was scanned with an AFM (Nanoscope VIII Multimode Scanning Force Microscopes, Bruker), covered with an acoustic hood to minimize the vibrational noise. Images were acquired under the tapping mode with a silicon nitride cantilever (Bruker). AFM images were processed with Nanoscope Analysis 1.5 software to flatten the background and to calculate the statistical parameters.

Aβ [3] = target: T1, Aβ; assay: Static light scattering (SLS) of Aβ fibrillar growth; format: biochemical; conditions: ratio as for ThT assay, Malvern Zetasizer Nano, n = 3
Description: Increases in the size of Aβ in the presence and absence of FapCS or bLgS were monitored by SLS. Solution of Aβ with FapCS or bLgS, at a similar ratio as for the ThT assay, was prepared and incubated. SLS measurements were performed at different time intervals using a Malvern Zetasizer Nano. The parameters were fixed at 7 for attenuator and 4.20 mm for cell position. Quartz cells with low volume capacity (100 µL) were used. The light scattering intensities (kilo counts per sec) and the refractive indices of the samples, buffer alone and toluene were measured.

Aβ [4] = target: T1, Aβ; assay: ThT kinetic assay of Aβ fibrillization (seeding with FapC species, Aβ seeds, bLgS); format: biochemical; conditions: 37 °C, n = 3; for effect on Aβ fibrillization (ThT): Aβ 50 × 10^−6 M, seeds/FapC species 5 × 10^−6 M, ThT fluorescence ex 445/em 485 nm; for effect on rate constant k of Aβ (in words): 5 × 10^−6 M with Aβ 50 × 10^−6 M, FapCS *, p < 0.05, FapC monomer and fibrils **, p < 0.005
Description: FapC seeds (FapCS) were produced by FapC fibrils of three different ages. The FapC monomers were produced as described^[ ^45 ^] and stored in 6 M GdmCl. Prior to fibrillization, the FapC monomers were purified via a PD10 desalting column. FapC monomers (1 mg mL^−1 or 40 × 10^−6 M) were incubated in deionized water at 37 °C for 1 week to produce mature fibrils and at 37 °C or 25 °C for 4 d to obtain young fibrils. Deionized water was used to make FapC fibrils as it is convenient to transfer the samples to other experimental conditions, i.e., buffered Aβ solution or PBS for in vivo microinjection. However, bacterial amyloids like FapC and curli can make amyloids over a range of conditions.^[ ^93 ^] FapCS were produced by sonicating an aqueous solution of FapC fibrils (10 × 10^−6 M) at 20 power of a probe sonicator (Sonics Vibracell: 750 watts and 20 kHz) for 2 min with 1 s on/off cycle. For in vitro cross‐seeding experiments, 50 × 10^−6 M of Aβ monomers were incubated with 5 × 10^−6 M of FapCS (10:1 molar ratio, Aβ:FapCS) at 37 °C. bLg amyloids were synthesized by heating of bLg monomers (80 °C, pH 2) of 10 mg mL^−1 solution for 24 h. Prior to the production of bLgS, the bLg amyloid solution was brought to pH 7 and then sonicated, similar to FapC, to generate bLgS.
Aβ (Anaspec Inc., purity ≥ 95%) was dissolved in 100 µL of hexafluoro‐2‐propanol (HFIP) and incubated at room temperature for 3 h. The acquired aliquots of this solution were freeze dried and stored at −20 °C for further experimentation. […] For the ThT kinetic assay, a 100 µL of aqueous solution containing Aβ (50 × 10^−6 M), FapCS or bLgS (5 × 10^−6 M) and ThT dye (100 × 10^−6 M) was incubated (37 °C) in a 96‐well plate. The ThT fluorescence (excitation: 445 nm/ emission: 485 nm) was recorded at specified time intervals for 50 h. Kinetic parameters (rate constant k, half‐life t 1/2 and lag‐time) were calculated as described.^[ ^94 ^] Briefly, kinetic curves were fitted to a sigmoidal curve =y0+ymax−y0/1+e^−(t−t1/2)k , where y 0 and y max are initial and final ThT fluorescence values, allowing us to calculate lag time = t 1/2 − 2/k.

Aβ monomers = assay: Isothermal titration calorimetry (ITC); format: binding; conditions: Aβ 200 × 10^−6 M into 20 × 10^−6 M seeds, 0.1% NH4OH, 25 °C
Description: ITC (Malvern MicroCal iTC200) was used to explore the interaction between Aβ monomers and oligomers (Aβo) with FapCS. Sample solutions were degassed at 25 °C while stirring (100 rpm). Aβ (200 × 10^−6 M, 40 µL) was filled into the syringe while FapCS or bLgS (20 × 10^−6 M, 200 µL) were filled in the cell (coin shaped). 0.1% NH4OH buffer solution was used for both solutions. Aβ was injected into the cell at an injection volume of 2 µL at the duration of 4 s and with a spacing of 180 s. First injection was 0.2 µL for 0.4 s duration and a total of 16 injections were programed. The heat exchange was recorded with a Microcal analysis (origin v7) software. The heat of dilution (Aβ against buffer) was subtracted from the interaction heat of samples. The acquired curves were fitted to a sequential binding model and thermodynamic parameters of binding energy (ΔH), free energy (ΔG), and entropic factor (TΔS) were calculated. Aβo for the ITC experiments was prepared by incubating Aβ aqueous solution (200 × 10^−6 M) at 4 °C for 48 h.^[ ^65 ^]

Aβ fibrils = assay: AFM of fibrils, FiberApp statistical analysis
Description: as §1

| Molecule | effect on secondary structure (in words) (Aβ [1]) | TEM observation (Aβ [2]) | Aβ fibrillar growth by SLS (Aβ [3]) | effect on Aβ fibrillization (ThT) (Aβ [4]) | binding to Aβ by ITC (in words) (Aβ monomers) | effect on rate constant k of Aβ (in words) (Aβ [4]) | pitch size of fibrils (Aβ fibrils; FiberApp) [nm] | fibril diameter (Aβ fibrils; from fibril heights, mean ± SD) [nm] |
| --- | --- | --- | --- | --- | --- | --- | --- | --- |
| bLgS: seeds from whey protein β‐lactoglobulin amyloids by sonication [reference compound] | did not induce β‐sheet formation in Aβ; also recorded: α‐helical and random‐coil structures of bLgS were slightly increased | did not render any acceleration of Aβ fibrillization | did not render any acceleration of Aβ fibrillization | did not render any acceleration of Aβ fibrillization | Insubstantial binding | – | – | – |
| B1 | – | appeared to aggregate on top of Aβ fibrils | – | lacked such acceleratory effect | – | significantly suppressed | – | – |
| B2 | – | – | – | accelerated Aβ fibrillization (Figure S3, Supporting Information), but less than the seeds derived from mature FapC fibrils | – | – | – | – |
| B3 | – | did not coat FapC fibrils | – | lacked such acceleratory effect; also recorded: significantly suppressed | – | significantly suppressed | 26 | 3.6 ± 1.0 |
